Several values for one entry are separate records, joined by “and”; a condition that tells them apart may be missing. Identical values can stand only once. Entries after “also recorded” stand apart in the source; their conditions may differ. Like-named read-outs stand apart in the source and are kept apart here.
Tests used:
[1] = molecular target: T1, Hs-cFGE (Homo sapiens, UniProt Q8NBK3); settings: copper-treated Hs-cFGE; EDTA 5 molar equiv or KCN
T1 sequence (Q8NBK3 with tags, fused parts or gaps isoform Q8NBK3-4): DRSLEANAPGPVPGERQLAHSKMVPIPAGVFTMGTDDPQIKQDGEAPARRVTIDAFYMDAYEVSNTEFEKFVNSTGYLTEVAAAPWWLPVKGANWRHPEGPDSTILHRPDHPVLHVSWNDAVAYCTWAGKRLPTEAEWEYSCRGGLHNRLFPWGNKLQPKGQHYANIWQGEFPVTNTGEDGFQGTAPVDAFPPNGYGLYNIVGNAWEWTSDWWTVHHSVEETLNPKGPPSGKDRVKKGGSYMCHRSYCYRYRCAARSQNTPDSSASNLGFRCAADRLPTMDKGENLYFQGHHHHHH

[2] = molecular target: Sc-FGE (Streptomyces coelicolor, UniProt Q9F3C7); format: biochemical, S. coelicolor
[3] = molecular target: T2, recombinant human FGE (Homo sapiens, UniProt Q8NBK3); assay: In vivo conversion in CHO cells expressing recombinant human FGE and αHER2 mAb, additives in culture medium
T2 sequence (Q8NBK3 34-374): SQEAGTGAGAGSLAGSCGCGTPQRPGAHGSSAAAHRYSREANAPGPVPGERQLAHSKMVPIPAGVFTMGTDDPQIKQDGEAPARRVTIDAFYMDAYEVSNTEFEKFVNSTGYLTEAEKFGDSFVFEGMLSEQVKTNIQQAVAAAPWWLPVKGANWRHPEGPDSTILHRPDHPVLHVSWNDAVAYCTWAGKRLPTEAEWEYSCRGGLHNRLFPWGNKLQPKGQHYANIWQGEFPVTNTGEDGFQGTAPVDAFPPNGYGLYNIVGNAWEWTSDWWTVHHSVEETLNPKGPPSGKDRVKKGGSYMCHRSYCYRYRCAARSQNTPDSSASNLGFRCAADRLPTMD
Experimental: The effect on conversion in the presence of Cu^2+ (copper sulfate) in the cell culture medium of mammalian cells expressing FGEs and proteins that include FGE recognition sites was investigated. CHO cells expressing a recombinant human FGE and recombinant αHER2 mAb (heavy and light chain in same cell) containing the FGE recognition sequence LCTPSR (SEQ ID NO:4) were cultured FortiCHO media with the CellBoost4 feed, Efficient Feed C, and Efficient Feed C, supplemented with glucose and/or galactose.
The experimental conditions were the same as those used in the Cu^2+ experiments above.

[4] = molecular target: T3, FGE (Homo sapiens, UniProt Q8NBK3); assay: FGE reaction mixtures with reductants or additives (product formation); format: biochemical; settings: additive in the in vitro FGE reaction mixture
T3 construct: made in house
T3 sequence (Q8NBK3 with tags, fused parts or gaps isoform Q8NBK3-4): T1 sequence (Q8NBK3 with tags, fused parts or gaps isoform Q8NBK3-4)
Experimental: The specific activity of FGE was measured using a discontinuous enzymatic activity assay. […] The rate of reaction was determined by integrating the peak areas at 215 nm of the substrate cysteine (Csub) and product (fGly) peptides on reversed-phase HPLC. […] Each aqueous reaction solution (120 μL) contained Csub (100 μM), FGE (0.1-1 μM), DTT (1 mM), and buffer (25 mM TEAM, pH 9). A single time course included 5 data points collected at evenly spaced intervals. The reaction was initiated upon addition of FGE stock solution and vortexing for 3 s. The reaction vial was vortexed at 1,500 RPM and 25° C. in a thermomixer R (Eppendorf). Time points were hand quenched by adding 20 μL of reaction mixture to 2 μL of 1 M HCl using a micropipettor. After completion of the reaction, each time point was analyzed by RP-HPLC (see below).
The conversion of Cys to fGly used a 2 H^+/2 e^− oxidation of the substrate Cys thiol as well as exchange of sulfur for oxygen. […] However, because O2 is a 4 H^+/4 e^− acceptor, a reducing agent was used to provide a second equivalent of 2 H^+ and 2 e^−, completing the reduction from O2 to 2 mol H2O. […] A mixture of reductant (DTT) and O2 was used for routine activity measurements.

[5] = system: 14 amino acid peptide ALCTPSRGSLFTGR (SEQ ID NO:8); assay: Discontinuous FGE activity assay on peptide substrate (RP-HPLC); format: biochemical
Experimental: [formula] where Et is the total enzyme in solution, and kcat and KM are the standard enzymatic parameters specified by the STRENDA commission. Units of enzyme specific activity are the katal, where 1 kat=1 mol·s^−1. Kinetic parameters were determined from nonlinear regression of [substrate] v. initial velocity using GraphPad prism.
The specific activity of FGE was measuring using a discontinuous enzymatic activity assay. The substrate for FGE was a 14 amino acid peptide containing the consensus sequence (H2N-[…]-COOH (SEQ ID NO:8)). The rate of reaction was determined by integrating the peak area at 215 nm of the starting material (Cys) and product (fGly) containing peptides on reversed-phase HPLC. The identity of product (and side product) peaks were determined by RP-HPLC MS/MS. Each aqueous reaction solution (60 μL) contained substrate peptide (100 μM), FGE (1 μM), DTT (1 mM), and buffer (25 mM triethanolamine, pH 9). A single time course consisted of 5 data points collected every 2 minutes. The reaction was initiated upon addition of FGE stock solution and vortexing for 3 s. Time points were quenched by diluting 10 μL of reaction mixture into 1 μL of 1 M HCl by hand with a micropipettor. After completion of the reaction, each time point was analyzed by RP-HPLC.
(§1) Substrate, product, and side products of the FGE substrate peptide […] (SEQ ID NO:8) were separated on RP-HPLC over 7 min with isocratic 18% MeCN in water containing 0.1% TFA. The integrated area of the fGly (2.1 min), Cys (3.3 min), βME-DS (3.6 min), and Cys-DS (6.2 min) forms of the substrate were used to calculate total area and each fraction thereof.
The specific activity of FGE was measured using a discontinuous enzymatic activity assay. The substrate for FGE was a 14 amino acid peptide containing the CXPXR consensus sequence ([…] (SEQ ID NO:8)). The rate of reaction was determined by integrating the peak areas at 215 nm of the substrate cysteine (Csub) and product (fGly) peptides on reversed-phase HPLC. The identities of product (and side product) peaks were determined by RP-HPLC MS/MS (see below). Each aqueous reaction solution (120 μL) contained Csub (100 μM), FGE (0.1-1 μM), DTT (1 mM), and buffer (25 mM TEAM, pH 9). A single time course included 5 data points collected at evenly spaced intervals. The reaction was initiated upon addition of FGE stock solution and vortexing for 3 s. The reaction vial was vortexed at 1,500 RPM and 25° C. in a thermomixer R (Eppendorf). Time points were hand quenched by adding 20 μL of reaction mixture to 2 μL of 1 M HCl using a micropipettor. After completion of the reaction, each time point was analyzed by RP-HPLC (see below).
as §1, with “integrated areas” for “integrated area”, “min), Csub” for “min), Cys”, “min), the Csub/βME disulfide (Csub-βME, 3.6” for “min), βME-DS (3.6”, “and substrate/substrate disulfide (Csub-Csub, 6.1” for “and Cys-DS (6.2”
Individual FGE reactions were initiated by rapidly mixing FGE into a premixed buffered solution of Csub and reducing agent. It was assumed that all buffered solutions contained oxygen at ˜270 μM at 25° C. (based upon Henry's law). Time points were chemically quenched by hand with HCl. […]. The identities of both the Cys- and fGly-containing peptides were confirmed by LC-MS/MS (FIG. 11). These assignments were then correlated with HPLC retention times (FIG. 14, panel a). The integrated peak areas of substrate and product were used to calculate the initial velocity of FGE (FIG. 14, panel b) using the method described by Boeker (Biochem. J., (1984), 223, 15; and Biochem. J., (1985), 226, 29).

[6] = system: CT-1.1 tagged Her2; assay: 293 Expi transient co-transfection of FGE form and CT tagged antibody, conversion by mass-spectrometry; format: cell-based; settings: Expi 293F, FGE form co-transfected with Her2 CT1.1, harvest day 5-6
Experimental: A 293 Expi transient co-transfection system (Life Technologies) was used for producing antibodies having a formylglycine residue at a selected site. The system produced high antibody titers (100-500 mg/L) with variable (10-95%) conversion. […] Expi 293F that were treated with or without 50 μM copper sulfate prior to transfection were transiently co-transfected in three independent experiments with expression plasmids for full-length human FGE with an N-terminal KDEL (SEQ ID NO:7) amino acid sequence (+KDEL) and CT tagged antibody at a ratio of 3:1 antibody:FGE DNA. The culture was harvested at 5-6 days post transfection, titer assessed by ELISA, and the protein was purified and conversion was measured by mass-spectrometry.
Expi 293F cells that were treated with or without 50 μM copper sulfate prior to transfection were transiently co-transfected with expression plasmids for various forms of human FGE (+KDEL, WT, myc-His) and CT tagged antibody at a ratio of 3:1 antibody:FGE DNA. The culture was harvested at 5 days post transfection, titer assessed by ELISA, the protein was purified and conversion was measured by mass-spectrometry.

[7] = other ion sources: iron sulfate 0.1 mM or 0.5 mM Day 3, MnCl2 50 uM or 10 uM Day 0, ZnCl2 50 uM Day 0
[8] = as purified from cell culture, not activated
[9] = nonlinear regression to Michaelis-Menten equation

For O=C(O)CN(CCN(CC(=O)O)CC(=O)O)CC(=O)O [EDTA, Ethylenediaminetetraacetic acid], the “effect of pretreatment of activated enzyme on catalytic activity” value [1] was “did not change” and the “effect of pretreatment of activated enzyme on specific activity” value [2] was “do not change; also recorded: did not change”.

With [Cl][Mn][Cl] [MnCl2] the “effect on conversion of the target polypeptide” value [3, 7] was “did not effect a detectable or significant increase”.

O=S(=O)([O-])[O-].[Fe+2] [iron sulfate, iron(II) sulfate] was tested, and the “effect on conversion of the target polypeptide” value [3] was “did not effect a detectable or significant increase”.

In the case of CC(O)C(=O)O (centres unmarked) [lactate], the “effect on conversion efficiency of the FGE” value ([3]; potential stimulators of lactate consumption, lactate or pyruvate 1.5 g/L with feeds) is reported as “did not increase conversion efficiency”.

For O=C1O[C@H]([C@@H](O)CO)C(=O)C1=O [DHAA, (L)-dehydroascorbic acid], the “effect of pretreatment on specific activity” value [2] was “did not change”.

With [Cl-].[Cl-].[Zn+2] [ZnCl2] the “effect on conversion of the target polypeptide” value [3, 7] was “did not effect a detectable or significant increase”.

For OO [H2O2, hydrogen peroxide], the “effect on product formation when added directly to the reaction” value [4] was “halted the reaction”.

B1: Sc-FGE: Streptomyces coelicolor formylglycine-generating enzyme, UniProt Q9F3C7, N-terminal hexahistidine tag, expressed in E. coli (protein)
chain: MAVAAPSPAAAAEPGPAARPRSTRGQVRLPGGEFAMGDAFGEGYPADGETPVHTVRLRPFHIDETAVTNARFAAFVKATGHVTDAERFGSSAVFHLVVAAPDADVLGSAAGAPWWINVRGAHWRRPEGARSDITGRPNHPVVHVSWNDATAYARWAGKRLPTEAEWEYAARGGLAGRRYAWGDELTPGGRWRCNIWQGRFPHVNTAEDGHLSTAPVKSYRPNGHGLWNTAGNVWEWCSDWFSPTYYAESPTVDPHGPGTGAARVLRGGSYLCHDSYCNRYRVAARSSNTPDSSSGNLGFRCANDADLTSGSAAE
modifications: left off: small tags and cut ends
notes: Streptomyces coelicolor formylglycine-generating enzyme, UniProt Q9F3C7, N-terminal hexahistidine tag, expressed in E. coli
B1 was tested, and the “increase of specific activity on activation” value [5] was “more than an order of magnitude”, the specific activity [5] was 3579±215 pkat·mg^−1 and the specific activity [5, 8] was 214 pkat·mg^−1 and 214±34 pkat·mg^−1. It also gave a Km [5, 9] of 96 µM and a kcat [5, 9] of 0.288 s⁻¹.

B2: Hs-FGE: full length wild-type human FGE containing the N-terminal extension and the core, UniProt Q8NBK3 (protein, UniProt Q8NBK3 1-374, looked up)
chain: MAAPALGLVCGRCPELGLVLLLLLLSLLCGAAGSQEAGTGAGAGSLAGSCGCGTPQRPGAHGSSAAAHRYSREANAPGPVPGERQLAHSKMVPIPAGVFTMGTDDPQIKQDGEAPARRVTIDAFYMDAYEVSNTEFEKFVNSTGYLTEAEKFGDSFVFEGMLSEQVKTNIQQAVAAAPWWLPVKGANWRHPEGPDSTILHRPDHPVLHVSWNDAVAYCTWAGKRLPTEAEWEYSCRGGLHNRLFPWGNKLQPKGQHYANIWQGEFPVTNTGEDGFQGTAPVDAFPPNGYGLYNIVGNAWEWTSDWWTVHHSVEETLNPKGPPSGKDRVKKGGSYMCHRSYCYRYRCAARSQNTPDSSASNLGFRCAADRLPTMD
modifications: full-length
notes: full length wild-type human FGE containing the N-terminal extension and the core, UniProt Q8NBK3
With B2 the specific activity [5, 8] was 850 pkat·mg^−1.

B3: +KDEL: full-length human FGE with an N-terminal KDEL (SEQ ID NO:7) amino acid sequence (protein, UniProt Q8NBK3 1-374, looked up)
chain: B2 chain
modifications: full-length N-terminal KDEL
B3 was tested, and the “Conversion (%)” value ([6]; copper sulfate 0 μM) was 72% and 47% and 78% and 62% and the “Conversion (%)” value ([6]; copper sulfate 50 μM at Day 0) was 93% and 94% and 95% and 88%.

B4: myc His: human FGE C-terminally tagged with myc-His (pRW529) (protein, UniProt Q8NBK3 34-374, looked up)
Formylglycine-generating …: T2 sequence (Q8NBK3 34-374)
modifications: C-terminal myc-His tag
B4 was tested, and the “Conversion (%)” value ([6]; copper sulfate 50 μM at Day 0) was 78% and 94% and the “specific activity of FGE isolated from Cu^2+ treated cells vs untreated cells” value [5] was “significantly higher activity”.

B5: WT: WT form of human FGE, non-KDEL (protein, UniProt Q8NBK3 34-374, looked up)
Formylglycine-generating …: T2 sequence (Q8NBK3 34-374)
B5 was tested, and the “Conversion (%)” value ([6]; copper sulfate 0 μM) was 77% and the “Conversion (%)” value ([6]; copper sulfate 50 μM at Day 0) was 86%.

Source: US11655492B2, “Activated formylglycine-generating enzymes and methods of producing and using the same” (R.P. Scherer Technologies, LLC, priority 2015, dated 2023)
